This note sets out measurements from the RNAGym collection of RNA variant scans (doi:10.1073/pnas.2313332121).

The labels stand for the following.
B1: TPR t1 (parent)
chain: GACCAAUCUGCCCUCAGAGCUCGAGAACAUCUUCGGAUGCAGAGGAGGCAGGCUUCGGUGGCGCGAUAGCGCCAACGUCCUCAACCUCCAAUGCAUCCCACCACAUGAUGAUGCCUGAAGAGCCUUGGUUUUUUG

Variants of B1 are the subject of the series. Put plainly: polymerase ribozyme fitness, log enrichment relative to wild type (log ratio); higher = more active; in vitro selection for triplet polymerase activity. The procedure, abridged:
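The heterodimeric triplet polymerase ribozyme's subunits were each mutagenized into PCR-built libraries and transcribed. Every library was selected once, in triplicate, by annealing with a biotinylated primer, the partner subunit and triplets, incubating frozen at −7 °C, gel-excising extended constructs, capturing on streptavidin beads and running RT-PCR. Input and output libraries were Illumina-sequenced, with genotypes kept only at ≥10 input reads and ≥1 read per output. Fitness, from inverse-variance-weighted replicate averages, is the base-2 logarithm of genotype enrichment over wild-type enrichment.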
Regarding C20A G36C U126C, the “polymerase ribozyme fitness (log ratio)” value is -4.66.

For C20A G42U G47U C53U, the “polymerase ribozyme fitness (log ratio)” value is -3.95.

On to A18C C62U, for which the “polymerase ribozyme fitness (log ratio)” value was -2.83. As for C20G G60A, the “polymerase ribozyme fitness (log ratio)” value is -3.55. With G19A A66U C101U the figure was -4.61; with C20G C124A, -2.2.

Regarding C20G C40U C124U U126C, the “polymerase ribozyme fitness (log ratio)” value is -4.35. With A18C G44A G61U C85G A121U the figure was -2.31; with A18C G63C C88U C97G C102U C123U, -6.68; with A18U G63A G110U, -6.24. Regarding C20A A46U C72G, the “polymerase ribozyme fitness (log ratio)” value is -4.27.

Take G19U C123A: the “polymerase ribozyme fitness (log ratio)” value is -2.59.

For the variant C20U C62U U92A C97U, the “polymerase ribozyme fitness (log ratio)” value was -5.74. With G19U C53G U54A G61A C124A G128A the figure was -3.82. As for C20A C123G, the “polymerase ribozyme fitness (log ratio)” value was -0.867. With G19A G47A C88U the figure was -2.72; with C20U A27G C72A C82U A84G U116C, -7.5. With G19A G77U U81A C114A the figure was -1.67; with G19C C101A G120U C124A G135C, -3.1; with C20A G63C, -3.31.

Take G19A C73U: the “polymerase ribozyme fitness (log ratio)” value was -2.61.

As to C20A C73G, the “polymerase ribozyme fitness (log ratio)” value was -3.25.

Turning to G19A U38C G63U C114A A121G, the “polymerase ribozyme fitness (log ratio)” value was -4.24. With C20A A29U C62U A119U U129G the figure was -4.53. As for G17U G71A G135U, the “polymerase ribozyme fitness (log ratio)” value was -4.32. Turning to C20A G60A, the “polymerase ribozyme fitness (log ratio)” value is -2.83. With G19U G69A U106C C114A G120C the figure was -2.51; with A18U U59G G60A, -4.56; with A18G U78C, -2.98. For the variant A18C G48A A119G G120A U126A, the “polymerase ribozyme fitness (log ratio)” value was -3.21. With A18U A111G U129A the figure was -4.75; with A18C U32C, -2.05; with C20U A95C, -2.07. In the case of A18G G19A, the “polymerase ribozyme fitness (log ratio)” value is -1.4.

Turning to C20G A90C A95U, the “polymerase ribozyme fitness (log ratio)” value was -4.06.

With C20A A29G G36U, the “polymerase ribozyme fitness (log ratio)” value was -6.08. As for A18C G25U A41G C53U C124A, the “polymerase ribozyme fitness (log ratio)” value was -6.92. With G19C G52A C88A U112G C114A the figure was -6.11; with A18U A46G G52A A118U, -2.9.

Regarding C20A U32A C70U G93C, the “polymerase ribozyme fitness (log ratio)” value was -6.8. With G19A C114A the figure was -1.55.

As for C20A G45U C53G C88U A111U U125G, the “polymerase ribozyme fitness (log ratio)” value is -4.56. Consider C20G U38G C76G, for which the “polymerase ribozyme fitness (log ratio)” value is -5.6. Take C20G C62U: the “polymerase ribozyme fitness (log ratio)” value is -3.29.

As to A18C G19U C72G C102A C104G U106A C123G, the “polymerase ribozyme fitness (log ratio)” value is -5.8. With C20G C40A A66G G71A G93U U112C the figure was -6.06; with C20G A43G C89A, -3.78. With C20A G45U C53G G63C C88U A111U U125G the figure was -5.87. Turning to A18U G36U U59C C97G, the “polymerase ribozyme fitness (log ratio)” value was -4.79. With G19U U54G C56U C123G the figure was -6.86; with C20A U32C C56U G57U G60U C62G, -5.9.

Take A18C G117C: the “polymerase ribozyme fitness (log ratio)” value is -4.33. With A18U G48C C49A the figure was -3.25; with A18G U130G, -4.25; with A18C C124U, -1.22. With A18C G69A the figure was -6.17. As to A18C G69U, the “polymerase ribozyme fitness (log ratio)” value is -0.162.

On to A18C C53U A121U, for which the “polymerase ribozyme fitness (log ratio)” value is -0.907. As to C20A C98G, the “polymerase ribozyme fitness (log ratio)” value was -5.84. With C20A A46U the figure was -4.55; with A18U A66C, -4.55. For A18U G60U, the “polymerase ribozyme fitness (log ratio)” value is -1.19.

As to A18C U92G, the “polymerase ribozyme fitness (log ratio)” value is -2.86. Regarding C20A C53U C72G U126G, the “polymerase ribozyme fitness (log ratio)” value was -3.99. In the case of G17U G110C, the “polymerase ribozyme fitness (log ratio)” value was -7.86. As to C20G G71A A83C, the “polymerase ribozyme fitness (log ratio)” value was -5.59. Take G19A C40U G45C G61C C124A: the “polymerase ribozyme fitness (log ratio)” value was -3.57. With A18C A24G G58A U92C the figure was -5.73; with A18C A29U, -4.04; with G19U A41C G48U G120U, -4.33. Take G19C C22A C53G U59G C123A: the “polymerase ribozyme fitness (log ratio)” value was -5.66.

As for G19A C56G U106A G113C, the “polymerase ribozyme fitness (log ratio)” value was -1.09.

C20A C89A: the “polymerase ribozyme fitness (log ratio)” value was -3.94. In the case of G19U C88A, the “polymerase ribozyme fitness (log ratio)” value was -2.97. With A18U G113U C114U C124A U130C the figure was -2.93.

For G19A G63A A111G, the “polymerase ribozyme fitness (log ratio)” value was -1.39. With G19A C76U C124U the figure was -1.46. With A18C A95U C124A the figure was -0.947; with C20G C76U, -3.75; with A18G G19U A46C C56A U87A, -2.82. With G19A U109A the figure was -5.74; with C20G, -3.76. Regarding C20U, the “polymerase ribozyme fitness (log ratio)” value is -1.26.

On to C20A, for which the “polymerase ribozyme fitness (log ratio)” value is -2.6. On to A18U U55G C82G G120A, for which the “polymerase ribozyme fitness (log ratio)” value was -3.38.

In the case of C20A G120U, the “polymerase ribozyme fitness (log ratio)” value was -2.44. With C20A G120C, the “polymerase ribozyme fitness (log ratio)” value is -1.75. G17U U21G G47C C115A: the “polymerase ribozyme fitness (log ratio)” value is -1.81. With C20G A50U U78C U96G U112A A118G the figure was -6.42; with A18C C114U, -3.82. With C20A C49U G61U C85A the figure was -3.53; with A18C C20A G93A G113A C124U U126G, -4.14; with C20A C64G C114A, -7.24. With A18U A26C C62U G120C U126G the figure was -7.02; with G19A C53A C101U, -2.73; with C20U C28G G69C G110U, -5.16. As for A18U A46U C97U A103U G120U C123G, the “polymerase ribozyme fitness (log ratio)” value is -6.88.

Take A18C A37G G110C: the “polymerase ribozyme fitness (log ratio)” value was -6.11. Turning to A18G A74C C97A U106A, the “polymerase ribozyme fitness (log ratio)” value is -6.31. With A18C U112C the figure was -0.328; with C20A C28G C70G A83U C99U G113U, -6.88; with A18C G61A A108U C115U C123U, -6.75.

Regarding C20U A26C G42U U54G C64U G122A C124A, the “polymerase ribozyme fitness (log ratio)” value was -6.48. With A18G G39U the figure was -3.93; with G17U U59C A108G A118U, -5.03. With C20A C101U the figure was -3.43; with A18U U30A A37G A108U, -3.64; with A18U C79U C101G, -4.83.

As for A18U C73G A100U G113A G128A, the “polymerase ribozyme fitness (log ratio)” value is -5.47. With C20U A91G the figure was -2.03. With G19C G63C the figure was -2.72; with G19U A41U G71A, -5.44. With A18C G71C the figure was -4.19.

Regarding A18C G60C, the “polymerase ribozyme fitness (log ratio)” value was -2.9. With C20A C114A the figure was -2.56; with A18C C56G C72U C124U, -0.737; with A18U G45C G57C G69U, -1.15.

As to G19U A105U U106A G113C, the “polymerase ribozyme fitness (log ratio)” value is -0.75. With G19A C53U the figure was -2.82. With C20U C28A G93U G110C the figure was -4.8. For C20A G36A A84G A118G, the “polymerase ribozyme fitness (log ratio)” value was -5.67. Regarding C20U A43G U78G U87A C89G, the “polymerase ribozyme fitness (log ratio)” value is -5.4. As for C20G A43G, the “polymerase ribozyme fitness (log ratio)” value is -3.54. For C20A G61A, the “polymerase ribozyme fitness (log ratio)” value was -2.67. With A18U A50U C99G A100C A108U C124G, the “polymerase ribozyme fitness (log ratio)” value was -8.04.

Regarding A18U U78G U96G, the “polymerase ribozyme fitness (log ratio)” value was -4.41. Take C20G U133G: the “polymerase ribozyme fitness (log ratio)” value was -3.81.

C20G G93C: the “polymerase ribozyme fitness (log ratio)” value is -4.4. With C20A A66G the figure was -4.25.

For the variant G19C G36C G71U U112G U116C, the “polymerase ribozyme fitness (log ratio)” value is -3.91. With G19A U96A C114A G127U the figure was -3.48; with A18U C89A U133A, -2.21. A18U C49U A68U U92A U96A G110C: the “polymerase ribozyme fitness (log ratio)” value is -7.53.

Turning to G19A G61C, the “polymerase ribozyme fitness (log ratio)” value is -4.27. With A18U G69U the figure was -0.112. In the case of G19C C22U A46C C114U, the “polymerase ribozyme fitness (log ratio)” value was -5.79. With A18U A24G C72U C73U the figure was -4.35; with C20G C115U, -4.25; with A18C G63U, -4.53.

On to G19A C62A U78A U81A C101G G113U U130A, for which the “polymerase ribozyme fitness (log ratio)” value is -6.38.

With C20G C53G C72U, the “polymerase ribozyme fitness (log ratio)” value is -3.94.

C20A A84G C86A G128U U130C: the “polymerase ribozyme fitness (log ratio)” value is -3.64. As for A18C G47A A121U, the “polymerase ribozyme fitness (log ratio)” value is -1.35. Turning to A18U G42U, the “polymerase ribozyme fitness (log ratio)” value was -2.23.

Take G19C A41C C70G G120U: the “polymerase ribozyme fitness (log ratio)” value is -6.52.

Regarding C20U A83G C101A G117U, the “polymerase ribozyme fitness (log ratio)” value is -5.42.

As for A18G U129C, the “polymerase ribozyme fitness (log ratio)” value was -4.73. As to A18G G48A G63A G77A U81C A121U U126G, the “polymerase ribozyme fitness (log ratio)” value was -5.32.

Consider A18C A37U G48A, for which the “polymerase ribozyme fitness (log ratio)” value is -3.12. For the variant A18U G44A U54A C86U U106A, the “polymerase ribozyme fitness (log ratio)” value is -5.25. In the case of A18U C49G A91G, the “polymerase ribozyme fitness (log ratio)” value was -3.84. With G19C G57A G69U C85G the figure was -4.01; with G19U A74U G113A, -2.19. In the case of C20A G48U, the “polymerase ribozyme fitness (log ratio)” value was -3.37. As for A18C G60A U78G G110C U131A, the “polymerase ribozyme fitness (log ratio)” value was -7.27. On to A18C G36U, for which the “polymerase ribozyme fitness (log ratio)” value was -4.02. With G19A U54C C73G C82G C114G the figure was -4.42; with C20G C89U U109G U132C, -3.87; with G19U U55G C70U, -3.42. As to A18U G61C G120A, the “polymerase ribozyme fitness (log ratio)” value is -4.67. With G19C G93A C104U U112C the figure was -0.693. With C20G C62U U125A the figure was -5.73. For A18G G39A C64A A90G G120C, the “polymerase ribozyme fitness (log ratio)” value is -5.87.

Regarding C20A U38A G48A C104A A121U, the “polymerase ribozyme fitness (log ratio)” value is -6.26. With C20A A84C C88A U92G C114A the figure was -4.5; with C20G C114G C115U, -6. As to G19U C53G, the “polymerase ribozyme fitness (log ratio)” value is -2.76.
